In patent US20150299285A1:
Read-outs that look alike come from different tables or passages of the source.

Assays:
[1] = molecular target: insulin receptor subtype A (human) (UniProt P06213); assay: cell-based or functional assay
[2] = molecular target: insulin receptor subtype B (human) (UniProt P06213); assay: cell-based or functional assay
[3] = molecular target: insulin receptor subtype A (human) (UniProt P06213); assay: cell-based or functional assay; remark: listed apart in the source
[4] = molecular target: insulin receptor subtype B (human) (UniProt P06213); assay: cell-based or functional assay; remark: listed apart in the source
[5] = molecular target: insulin receptor subtype A (human) (UniProt P06213); assay: IR-A Binding, competition with 125I-insulin

native IGF-1 (from UniProt P05019 49-118) (ligand)
EC50, Receptor Phosphorylation [1]: 6.48 nM
EC50, Receptor Phosphorylation [2]: 32.2 nM
EC50, IR-A Phosphorylation [3]: 29.2 nM
EC50, Receptor Phosphorylation [3]: 10 nM
EC50, phosphorylation (FIG. 18A) [3]: 2.24 nM
IC50 (so named in p-1063), Phosphorylation at Insulin Receptor Subtype A [3]: 146 nM
EC50, Receptor Phosphorylation [4]: 16.6 nM
EC50, phosphorylation (FIG. 18B) [4]: 32.4 nM
IC50 (so named in p-1063), Phosphorylation at Insulin Receptor Subtype B [4]: 19.7 nM
IC50 [5]: 18.8 nM
